Here are results for three molecules from paper PMC7969034.

Series [1] concerns the target T1, p204 HINab (Mus musculus, UniProt P0DOV2 216-619).
T1 sequence: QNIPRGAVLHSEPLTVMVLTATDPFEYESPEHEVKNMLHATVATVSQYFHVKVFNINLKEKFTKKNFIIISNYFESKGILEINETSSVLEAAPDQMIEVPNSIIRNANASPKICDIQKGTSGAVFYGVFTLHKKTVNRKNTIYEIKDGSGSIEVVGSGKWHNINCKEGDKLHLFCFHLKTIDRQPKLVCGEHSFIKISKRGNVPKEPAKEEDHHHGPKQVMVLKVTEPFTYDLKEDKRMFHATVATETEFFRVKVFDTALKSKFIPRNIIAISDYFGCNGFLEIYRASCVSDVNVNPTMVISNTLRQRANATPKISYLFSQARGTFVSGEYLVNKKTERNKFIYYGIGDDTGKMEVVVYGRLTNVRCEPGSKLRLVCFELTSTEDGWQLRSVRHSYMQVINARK
Briefly: fluorescence polarization. For orientation: In fluorescence polarisation assays a small probe gives low polarisation when free and higher when bound to something large.

Another series concerns the target T2, p204 HINb (Mus musculus, UniProt P0DOV2 427-619).
T2 sequence: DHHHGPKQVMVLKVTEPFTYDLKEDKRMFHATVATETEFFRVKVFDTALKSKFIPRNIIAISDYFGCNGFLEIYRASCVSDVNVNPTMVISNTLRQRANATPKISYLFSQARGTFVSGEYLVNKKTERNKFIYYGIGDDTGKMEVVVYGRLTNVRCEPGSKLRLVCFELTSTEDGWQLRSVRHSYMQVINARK
Briefly: fluorescence polarization.

In another series the target is T3, p204 HINa (Mus musculus, UniProt P0DOV2 216-417).
T3 sequence: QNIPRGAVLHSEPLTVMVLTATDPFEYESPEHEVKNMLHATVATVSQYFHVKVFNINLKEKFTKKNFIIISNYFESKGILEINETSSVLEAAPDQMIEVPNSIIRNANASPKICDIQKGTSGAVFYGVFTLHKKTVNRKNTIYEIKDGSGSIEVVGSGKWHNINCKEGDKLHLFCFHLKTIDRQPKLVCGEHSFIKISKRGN
Briefly: fluorescence polarization.

The target of series [2] is T1, p204 HINab. Kind of series: X-ray crystallography.

B1: 20 mer dsDNA (dsDNA)
DNA 1: TAAGACACGATGCGATAAAA
DNA 2: TTTTATCGCATCGTGTCTTA
As for B1, the Kd in the series with p204 HINab [1] stood at 156 ± 37.5 µM.

B2: 30 mer dsDNA (dsDNA)
DNA 1: CCATCAGAAAGAGGTTTAATATTTTTGTGA
DNA 2: TCACAAAAATATTAAACCTCTTTCTGATGG
In the case of B2, the dissociation constant Kd with p204 HINab [1] is 13.5 ± 2.39 µM; in the series with p204 HINb it was 157 ± 37.2 µM; with p204 HINa it was 193 ± 77 µM.

B3: 16 mer dsDNA (crystal) (dsDNA)
DNA 1: CCATCAGAAAGAGAGC
DNA 2: GCTCTCTTTCTGATGG
B3: the binding result in the series with p204 HINab [2] is on record as “binds”.

By Kd is commonly meant the free concentration of one partner at which half of the binding sites on the other are occupied at equilibrium, for simple one-to-one binding. A low value points to tighter binding.
